Among the data in EP1169642B1 are stoichiometry (DMP1:Factor H) values, retold here.

This assay has as its target purified human complement Factor H (human) (UniProt P08603). In words: steady state fluorescence titration of purified human Factor H.

Chain of purified human complement Factor H (human) (P08603 19-1231 limits assumed): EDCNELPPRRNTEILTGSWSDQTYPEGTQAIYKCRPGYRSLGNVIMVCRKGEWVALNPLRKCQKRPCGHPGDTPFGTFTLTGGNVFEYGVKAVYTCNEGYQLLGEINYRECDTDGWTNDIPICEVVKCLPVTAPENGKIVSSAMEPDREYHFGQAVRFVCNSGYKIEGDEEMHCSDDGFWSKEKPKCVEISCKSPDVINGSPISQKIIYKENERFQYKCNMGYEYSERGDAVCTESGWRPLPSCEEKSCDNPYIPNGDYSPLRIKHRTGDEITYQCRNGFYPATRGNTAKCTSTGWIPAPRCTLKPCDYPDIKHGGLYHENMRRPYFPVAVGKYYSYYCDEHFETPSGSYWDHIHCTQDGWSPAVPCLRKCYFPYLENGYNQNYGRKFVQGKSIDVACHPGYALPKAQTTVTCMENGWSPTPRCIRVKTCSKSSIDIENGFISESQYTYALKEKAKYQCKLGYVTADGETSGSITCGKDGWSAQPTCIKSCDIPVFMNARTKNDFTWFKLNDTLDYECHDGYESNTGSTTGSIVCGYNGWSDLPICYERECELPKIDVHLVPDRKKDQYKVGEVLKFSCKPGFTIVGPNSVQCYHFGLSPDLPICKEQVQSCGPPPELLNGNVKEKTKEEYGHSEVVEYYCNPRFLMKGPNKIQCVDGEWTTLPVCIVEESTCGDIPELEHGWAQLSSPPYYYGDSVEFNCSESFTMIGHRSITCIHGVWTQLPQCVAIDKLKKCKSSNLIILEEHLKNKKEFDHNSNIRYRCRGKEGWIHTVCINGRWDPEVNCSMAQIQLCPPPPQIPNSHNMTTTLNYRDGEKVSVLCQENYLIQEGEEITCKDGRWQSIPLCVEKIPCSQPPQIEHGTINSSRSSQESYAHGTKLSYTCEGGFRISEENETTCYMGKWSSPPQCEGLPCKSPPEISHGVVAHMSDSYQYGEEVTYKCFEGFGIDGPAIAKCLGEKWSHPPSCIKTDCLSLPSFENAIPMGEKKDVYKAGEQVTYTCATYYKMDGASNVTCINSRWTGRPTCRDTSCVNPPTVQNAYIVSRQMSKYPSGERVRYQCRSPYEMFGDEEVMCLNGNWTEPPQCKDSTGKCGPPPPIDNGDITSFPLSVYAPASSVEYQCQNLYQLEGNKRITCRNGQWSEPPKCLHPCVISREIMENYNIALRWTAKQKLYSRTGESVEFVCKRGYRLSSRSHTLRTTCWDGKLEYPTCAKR

B1: recombinant dentin matrix protein 1 (rDMP1) (ligand)
chain: LPVTRYQNNESEDSEEWKGHLAQAPTPPLESSESSEGSKVSSEEQANEDPSDSTQSEEGLGSDDHQYIYRLAGGFSRSTGKGGDDKDDDEDDSGDDTFGDDDSGPGPKDRQEGGNSRLGSDEDSDDTIQASEESAPQGQDSAQDTTSESRELDNEDRVDSKPEGGDSTQESESEEHWVGGGSDGESSHGDGSELDDEGMQSDDPESIRSERGNSRMNSAGMKSKESGENSEQANTQDSGGSQLLEHPSRKIFRKSRISEEDDRSELDDNNTMEEVKSDSTENSNSRDTGLSQPRRDSKGDSQEDSKENLSQEESQNVDGPSSESSQEANLSSQENSSESQEEVVSESRGDNPDPTTSYVEDQEDSDSSEEDSSHTLSHSKSESREEQADSESSESLNFSEESPESPEDENSSSQEGLQSHSSSAESQSEESHSEEDDSDSQDSSRSKEDSNSTESKSSSEEDGQLKNIEIESRKLTVDAYHNKPIGDQDDNDCQDGY
Molecule B1 showed a stoichiometry (DMP1:Factor H) of 1 molar ratio.
